Measured values: PMC9239242 (mBio, 2022)

Key:
[1] = biological target: T1, E. coli RNA polymerase holoenzyme (native) (E. coli, UniProt P0A8V2 1-1342; P0A8T7 1-1407; P00579 1-613; P0A7Z4 1-329; P0A800 1-91); assay: cell-based or functional assay
[2] = biological target: T1, E. coli RNA polymerase holoenzyme …; conditions: both partners purified

Binder | IC50 for inhibition of rrnB P1 transcription, multiround in vitro transcription with E. coli RNAP (4 nM to 2,000 nM factor) [1] | IC50 [2]
λ Orf73 (Orf73 from bacteriophage lambda) (natural protein) ADIIDSASEIEELQRNTAIKMRRLNHQAISATHCCECGDPIDERRRLVVQGCRTCASCQEDLELISKQRGSK | ~50 nM | 
VP882 Orf61 (Orf61 from Vibrio phage VP882) (natural protein) SDIADQAQDVIEQHLTASLANRKHNINPAIPSAKHCDDCESEIPEARRRSLPGVRLCVDCASLQEIKGRHQR | 270 nM | 1700 nM
VHML Orf8 (Orf8 from Vibrio phage VHML) (natural protein) MTDCSADPLDRAAALSQAHLEVSLSRIKKFEGVSAHECVECGSEIPKKRRELLQGVTDCVDCAAIKETLSKNYMR | 800 nM | 3000 nM
